Experimental data as given in the supplement of paper PMC9170038.

Test system: MS2 coat protein
Assay: apparent KD of MS2 coat protein; designed switch direction (-1 OFF switch, 1 ON switch): 1; higher = weaker reporter binding
Procedure, shortened: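 The reported apparent KD is a per-design median over clusters, from curve fits of normalised cluster fluorescence. Protein titrations used SNAP-549-labelled MS2 coat protein, doubled from 0.7 or 1.5 nM to 3 µM, in Tris-HCl pH 7.5 buffer with KCl, MgCl2, BSA, DTT, tRNA and Tween-20, with no input, 200 uM small-molecule ligand, or an oligonucleotide input. The RNA switches were transcribed on Illumina chips by stalled E. coli RNA polymerase.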

[1] = Eterna round: R95, input ligand: FMN 200 uM
[2] = Eterna round: R95, input ligand: microRNA oligo, concentration not stated
[3] = Eterna round: R95, input ligand: none
[4] = input ligand: microRNA oligo, concentration not stated

Sequence | apparent KD of MS2 coat protein [1] [nM] | apparent KD of MS2 coat protein [2] [nM] | apparent KD of MS2 coat protein [3] [nM] | apparent KD of MS2 coat protein (input ligand: FMN 200 uM) [nM] | apparent KD of MS2 coat protein [4] [nM] | apparent KD of MS2 coat protein (input ligand: none) [nM]
AUCAUAGUAGCGCAGGAUAUCCAGGUCGAGACAUGAGGAUCACCCAUGUCAGCAGGAGGACCAGAGGAGAAGGGUGAGAAAAUAA [Bimaan] (puzzle: Same State 2) | 12.5 | 14.2 | 16.7 | – | – | –
AUGCCAAAACGAGGAUAUGGAGCCUUAUUGGCUCCAGAAGGUGUGACAUGAGGAUCACCCAUGUGGCAGUGGUCUAAUGACCAC [Eli NG1ss - 40] (Eterna round: R96, puzzle: Same State NG 1) | – | – | – | 94.2 | 105 | 133
GGUGCCAAAUAAGCCUACAUGAGGAUCACCCAUGUAUGUAGGUAGGAUAUCGUUUGCAAAGCAAACGAGAAGGGCCUAGGCACC [Mat - Same State NG 3 - JL Mod - D59] (Eterna round: R96, puzzle: Same State NG 3) | – | – | – | 26.1 | 39.3 | 50.7
GUGGAGGGUUAAGGAUAUUGAAUACAUAUGUUUAACAUGAGGAUCACCCAUGUGGGUUGCGGUAUCGAGAAGGUAAAUUACUGG [salish99_SSNG2_r04_035] (Eterna round: R96, puzzle: Same State NG 2) | – | – | – | 192 | 151 | 133
GGUCCAGCCUGAGCUGGACGGUAGUAUGUACAUGAGGAUCACCCAUGUCAUGUAGAAGUUACUUGUUCGUCUUGAAC [SENSOR #1] (puzzle: Sensor for hsa-mir-208a) | 15.1 | 13.3 | 14.9 | – | – | –
GGGCCAGCUUGUGCUGGGCCUUCGCAUGCACAUGAGGAUCACCCAUGUCGUGUACAUGCUUUUUGCUCGUCUUUAAA [Photon Torp-11] (puzzle: Sensor for hsa-mir-208a) | 39.6 | 14 | 40.8 | – | – | –
GCUAGAAUUAAUGCUAACAUGAGGAUCACCCAUGUAUGUUGGCAGGAUAUCGUUUGCAAAGCAAACGAGAAGGGCCAUACUAGC [Mat - Same State NG 3 - JL Mod - D25] (Eterna round: R96, puzzle: Same State NG 3) | – | – | – | 8.26 | 27.3 | 21.3
AUUAAACAUGAGGAUCACCCAUGUCAACAAAGUCGAGGAUAUGGGCAAAUAAAAUAAGAACCAGAAGGCGACUAAU [salish99_ss1_r3_071] (puzzle: Same State 1) | – | 22.3 | – | – | – | –
GCGUUUAACGUAGGAUAUCGACCUACAUGAGGAUCACCCAUGUCUUUGUAAAGUUUUUUUAAUUACGAGAAGGACGUUUUGCAU [JR_SSNG2_Sub071] (Eterna round: R96, puzzle: Same State NG 2) | – | – | – | 40.3 | 89.6 | 107
UGGCUGGUGCUAGGAUAUACAUGAGGAAUCCUCGUAGAAGGAGCACGACAUGAGGAUCACCCAUGUAGCCGUCCGUAGACGGCU [salish99_SSNG1_r04_007] (Eterna round: R96, puzzle: Same State NG 1) | – | – | – | 284 | 156 | 112
CUGUGUUGCGGGCAGGAUAUGUAUUGGAAUACAUGAGGAUCACCCAUGUGCGGGUGUUUCACCCGACAGAAGGGCCAAUCGCGAC [JL-ss2-3.21 ViennaUCT mod] (puzzle: Same State 2) | – | 266 | – | – | – | –
GUUGAAUUGCAAGGAUAUCUUAGUCAGACGCUAAGAGAAGGUGCUUUACAGUUACAUGAGGAUCACCCAUGUCUUUCUUUUGAU [Jens NG1-01] (Eterna round: R96, puzzle: Same State NG 1) | – | – | – | 23.4 | 20.2 | 28.5
CGUUCUUACUCAGGACGGAGAGUAGAGGAACAUGAGGAUCACCCAUGUAUGAGCUUUUUGCUCGUGAUUAACAGUAG [JR_SHM208a_Sub013] (Eterna round: R96, puzzle: Sensor for hsa-mir-208a) | – | – | – | 103 | 55.5 | 86.8
GCUACCAUUGAAGCCAACAUGAGGAUCACCCAUGUAUGUUGGUAGGAUAUCGUUUGCAAAGCAAACGAGAAGGGCUAAGGUAGC [Mat - Same State NG 3 - JL Mod - D79] (Eterna round: R96, puzzle: Same State NG 3) | – | – | – | 83.5 | 42.1 | 74.4
AUGUGGAAGCCACAGGAUAUACUAGGGUACACAUGAGGAUCACCCAUGUGCGGCUAAAAGUGCUAGUAGAAGGGUGGUAAAGAAA [Diartire] (puzzle: Same State 2) | 13.8 | 12.5 | 15 | – | – | –
GUGGUCAGACAUGAGGAUCACCCAUGUGGAAUAAAUAAGGAGAAGGAUAUGCAAUAUAGGAUAUAGCAGAAGGUCUGGUUGGUG (Eterna round: R96, puzzle: Same State NG 3) | – | – | – | – | 58.5 | –
GAGUGACAUGAGGAUCACCCAUGUAGAAUAGAACAAGGAUAUGUGGAAGGCGGAGGAGAGACAGAAGGUGUUGGAG [JR_SS1_Sub056] (puzzle: Same State 1) | 47.9 | 51.2 | 88 | – | – | –
UUAAAGAAUUAAGGAUAUUGAAUACAUAUGUUUAACAUGAGGAUCACCCAUGUGGGUUGCGGUAUCGAGAAGGUAAAAUAAUAG [Mat - Same State NG 2 - JL mod - D5] (Eterna round: R96, puzzle: Same State NG 2) | – | – | – | 108 | 106 | 118
GGACGUCGAUUUCCUACUUAAACAUGAGGAUCACCCAUGUCACAGGAUAUGAGUCCGAUUAGGACUCAGAAGGGUGCGACGUCC [Fiskers NG3ss - 52] (Eterna round: R96, puzzle: Same State NG 3) | – | – | – | 22.7 | 11.1 | 18.8
GCUAGAAUUAAUGCCAACAUGAGGAUCACCCAUGUAUGUUGGCAGGAUAUCGUUUGCUUUGCAAACGAGAAGGGCUAAACUAGC [JL SSNG3 1.03] (Eterna round: R96, puzzle: Same State NG 3) | – | – | – | 217 | 170 | 217
UCAAUCAUGUAAGGAUAUGCAGCCGAAACGGCUGCAGAAGGUACUAUAAUUACAUGAGGAUCACCCAUGUUAUAAAAUAAAUAU [Mat - Same State NG 1 - JL mod - D80] (Eterna round: R96, puzzle: Same State NG 1) | – | – | – | 40.9 | 92.7 | 160
AACAAUCUAUCUGAGGAUAUCAUGAAAAAAACAUGAGGAUCACCCAUGUGCAGGAAAACUGCAUAUGAGAAGGCAGAUAGAUUGG [salish99_SS2_r3_003] (puzzle: Same State 2) | 23.2 | 589 | 814 | – | – | –
CAUCUAUACUUAGGAUAUGUAGGAUAUGCCUACAUGAGGAUCACCCAUGUUCGCAUGGCAGAAGGACAGAAGGAAGAACUACUU [pwkr ssNG2 2FMN + 1F5.5] (Eterna round: R96, puzzle: Same State NG 2) | – | – | – | 94.3 | 57.3 | 266
